Holding throughout (format): physicochemical
Series [1] in a line: Antibody aggregation with partially degraded polysorbate 80 (shaking and siliconized syringes). The conditions noted are these: control samples without polysorbate 80, same conditions. How it is done: This material was diluted one-to-one with a 10 mg/mL solution of AN100226 in Formulation #2 resulting in a solution containing 0.01% (w/v) polysorbate 80 and 50% of the maximum level of degraded polysorbate 80.

The nature of series [2]: Agitation-induced precipitation: vials shaken at 150 rotations per minute.
Series [3] in a line: 65 mg/mL liquid formulation: appearance and SEC. The conditions noted are these: 65 mg/mL in 10 mM sodium phosphate, 140 mM sodium chloride, pH 6, about 0.06% polysorbate 80.
A short description of series [4]: Lyophilized formulation reconstituted to 100 mg/mL: reconstitution, appearance, SEC. To be noted: immediately after lyophilization and after 2 wks at 40 deg. How it is done:
The solution was filled at 5 mL per vial into 10 mL borosilicate glass vials and fitted with gray butyl rubber lyophilization stoppers. Lyophilization was done using a Virtis Gensis model lyophilizer. The product was frozen at a shelf temperature of −60° C. for 10 hours and then the shelf temperature was raised to −40°. Primary drying was performed at a shelf temperature of −10° C. and a chamber pressure of 100 mTorr for 20 hours. […] The vials were stoppered under vacuum.
The samples were analyzed immediately after lyophilization and after 2 wks of storage in the lyophilized form at 40 deg.

Series [5] in a line: Protein precipitation facilitated by trace levels of silicone (lubricated polypropylene syringe). The conditions noted are these: adjusted to 0.02% (w/v) polysorbate 80. From the text: The silicone oil was introduced into the product upon use of standard lubricated polypropylene syringes equipped with siliconized rubber stoppers. […] The aggregation, deamidation and subsequent precipitation caused by denaturation at the air-liquid interface has become more discernable problematic with the drug being shipped to more clinical sites. Both causes of protein precipitation have been resolved by the addition of polysorbate 80 at a concentration of 0.02% (w/v).
An evaluation of the ability of 0.02% (w/v) polysorbate 80 to inhibit the protein precipitation facilitated by trace levels of silicone was conducted. […] The material was allowed to stand for several hours at room temperature.

As for natalizumab, the “precipitation of the antibody” value in series [1] was “significant precipitation”. In series [2] (5 mg/mL, Lot No. AN100226-0003 with 0.02% (w/v) polysorbate 80 added, 150 rotations per minute, room temperature, within 3 hours), the “appearance of vials after shaking” value is “remained clear and free of particles”. For the same substance, in series [2] (vials completely filled, absence of polysorbate 80, shaken for extended periods of time), the “particle formation on shaking” value was “without additional particle formation being induced”. The appearance of solution entry in series [3] is recorded as “slightly opalescent but without particulates”. In addition, the “appearance of reconstituted solutions” value in series [4] (100 mg/mL reconstituted) was “clear and colorless with an absence of particulate material”. Moreover, the reconstitution times result in series [4] (lyophilized from 5 mM histidine, 20 mg/mL sucrose, 0.02% polysorbate 80, pH 6, 1 mL WFI to 100 mg/mL) is given as “immediate”. Besides, the “particles after 0.2 μm filtration into 5-mL vial” value in series [5] (after syringe exposure, after several days) is reported as “substantially free of particles”. Besides, the “precipitation by visual inspection” value in series [5] (lubricated 60 mL polypropylene syringe, several hours at room temperature) is “no precipitation”.
